B1: full-length progranulin (natural protein, human, UniProt P28799 18-593, looked up)
chain: TRCPDGQFCPVACCLDPGGASYSCCRPLLDKWPTTLSRHLGGPCQVDAHCSAGHSCIFTVSGTSSCCPFPEAVACGDGHHCCPRGFHCSADGRSCFQRSGNNSVGAIQCPDSQFECPDFSTCCVMVDGSWGCCPMPQASCCEDRVHCCPHGAFCDLVHTRCITPTGTHPLAKKLPAQRTNRAVALSSSVMCPDARSRCPDGSTCCELPSGKYGCCPMPNATCCSDHLHCCPQDTVCDLIQSKCLSKENATTDLLTKLPAHTVGDVKCDMEVSCPDGYTCCRLQSGAWGCCPFTQAVCCEDHIHCCPAGFTCDTQKGTCEQGPHQVPWMEKAPAHLSLPDPQALKRDVPCDNVSSCPSSDTCCQLTSGEWGCCPIPEAVCCSDHQHCCPQGYTCVAEGQCQRGSEIVAGLEKMPARRASLSHPRDIGCDQHTSCPVGQTCCPSLGGSWACCQLPHAVCCEDRQHCCPAGYTCNVKARSCEKEVVSAQPATFLARSPHVGVKDVECGEGHFCHDNQTCCRDNRQGWACCPYRQGVCCADRRHCCPAGFRCAARGTKCLRREAPRWDAPLRDPALRQLL
B2: pro-cathepsin D (enzyme)
chain: not shown
modifications: fluorescently labelled in the MST assay (dye and site not stated)

Legend:
pro-cathepsin D = biological target: B2; experiment: cell-based or functional assay
pro-cathepsin D, sequence (P07339 21-412): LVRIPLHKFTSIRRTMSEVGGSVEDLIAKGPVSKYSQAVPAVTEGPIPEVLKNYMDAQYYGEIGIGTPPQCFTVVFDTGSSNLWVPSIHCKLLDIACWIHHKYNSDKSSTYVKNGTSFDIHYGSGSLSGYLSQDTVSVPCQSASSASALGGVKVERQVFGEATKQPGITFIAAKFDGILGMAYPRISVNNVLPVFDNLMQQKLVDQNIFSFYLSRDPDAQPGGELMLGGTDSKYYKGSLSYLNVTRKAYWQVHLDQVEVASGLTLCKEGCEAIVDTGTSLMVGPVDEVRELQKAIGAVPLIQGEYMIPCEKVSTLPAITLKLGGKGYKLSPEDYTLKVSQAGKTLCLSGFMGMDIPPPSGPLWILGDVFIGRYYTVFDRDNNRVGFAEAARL

full-length progranulin = biological target: B1; experiment: MST

Row | Kd (full-length progranulin) [nM] | Binder | DSF - ΔTm of proCTSD (1 μM proCTSD with 2 μM PGRN, pH 7.4) (pro-cathepsin D) [°C]
1 | – | B1 | -0.41
2 | 950 | B2 | –

From article PMC6666309 (Biochemistry, 2019)
